Assay results published in the supplement of paper PMC10065799, “High-throughput profiling of sequence recognition by tyrosine kinases and SH2 domains using bacterial peptide display” (eLife, 2023).

target: FGFR1 (UniProt P11362); assay: phosphorylation enrichment, bacterial display (enrichment ratio); higher = better substrate or ligand; peptides without Tyr show the background
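Further: 11-residue human phosphosite peptides and single-mutation variants displayed on the E. coli surface, counted by deep sequencing, each peptide's frequency after selection divided by its frequency in the unselected input library; frequency after pTyr selection over input frequency; kinase dosed for 20-30% of maximal phosphorylation in three min.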

Sequence of FGFR1 (P11362 whole entry, looked up): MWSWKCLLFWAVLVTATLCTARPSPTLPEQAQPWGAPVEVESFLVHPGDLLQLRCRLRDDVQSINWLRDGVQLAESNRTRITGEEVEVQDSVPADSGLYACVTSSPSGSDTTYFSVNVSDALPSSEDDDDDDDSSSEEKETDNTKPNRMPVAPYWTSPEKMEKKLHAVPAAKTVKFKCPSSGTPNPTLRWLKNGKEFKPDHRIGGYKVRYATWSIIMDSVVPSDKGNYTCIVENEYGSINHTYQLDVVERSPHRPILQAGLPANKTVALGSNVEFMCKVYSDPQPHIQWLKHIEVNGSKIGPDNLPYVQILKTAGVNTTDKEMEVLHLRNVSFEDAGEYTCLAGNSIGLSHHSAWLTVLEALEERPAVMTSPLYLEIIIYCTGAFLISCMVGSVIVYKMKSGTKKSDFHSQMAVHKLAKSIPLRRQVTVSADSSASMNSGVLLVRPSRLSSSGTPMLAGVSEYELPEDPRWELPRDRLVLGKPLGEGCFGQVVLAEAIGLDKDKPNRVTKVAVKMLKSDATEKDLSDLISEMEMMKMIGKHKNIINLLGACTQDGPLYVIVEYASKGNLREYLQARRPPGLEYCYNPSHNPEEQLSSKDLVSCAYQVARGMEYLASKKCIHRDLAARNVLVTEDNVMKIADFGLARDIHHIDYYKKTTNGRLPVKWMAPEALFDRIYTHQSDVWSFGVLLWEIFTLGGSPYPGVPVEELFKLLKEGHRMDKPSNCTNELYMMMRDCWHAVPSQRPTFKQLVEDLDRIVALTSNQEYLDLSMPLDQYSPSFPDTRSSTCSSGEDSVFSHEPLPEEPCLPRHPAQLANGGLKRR

Sequence	phosphorylation enrichment
GLCSFYETSKM [MAGED2_Y449_R446C_YF]	0.568
DLFRLYVCVKE [ARID1B_Y1091]	0.389
FSSLGYPPPEG [ZSWIM4_Y87_YF]	0.437
WVYNHYRCIIW [BRCA2_Y2624_W2626C]	0.562
REQREYLDQLN [CCDC88B_Y1277]	0.693
MAALSYVSEIG [BPIFB2_Y36_K31M]	0.447
TRDVNYGWIIR [MT-CYB_Y75]	0.344
GFDHSYFFIAT [ESD_Y262_YF]	7.11
PQGVRYIYTID [DCX_Y103]	0.726
HSLRDYKEALM [ADA2_Y337_H335R]	0.601
GDFFRYLAEVA [YWHAG_Y133_YF]	0.683
IFRASYVPFAA [RBM47_Y541_G538R_YF]	0.508
ITRDIYETDFF [INSR_Y1185_M1180I_YF]	0.539
ITLPIYTKGSE [ANK2_Y1455_E1458G]	0.392
FLAVGYHKTHI [IDS_Y225_P228T]	0.429
RVVVPYEPPEV [TP53_Y220_S215R]	0.631
ARSMEYLAEQK [MST1R_Y1198]	0.471

Sequence	phosphorylation enrichment
RRFSSYSQMEN [PKP1_Y120]	1.34
EKKDIYKAGEQ [CFH_Y1008_V1007I]	0.327
DNACQYMLTDR [MYH7_Y164_Y162C]	0.614
SGGLDYGMVGG [TNRC6B_Y1382_M1380L]	0.446
LNYNEYFRDLN [HPRT1_Y198_D194N]	1.29
QRKRAYVEIEF [MAK16_Y282_YF]	0.617
KRLWDYGMSSS [F8_Y1728_E1723K]	0.399
VAFLFYKSIGP [ADGRL4_Y302_V300L_YF]	0.739
TQNGVYSAANY [DDX5_Y535]	0.454
FFLGAYDRFLP [SLC22A5_Y486_V481F_YF]	0.503
RLGNQHVNVMN [SLC3A1_Y461_Y461H]	0.567
INMKKYCKKDF [NTN1_Y490_YF]	0.56
MSRYIYSTDYY [NTRK1_Y676_D674Y]	8.47
KLPFLYDDPFS [GPX2_Y127_P126L_YF]	0.589
KLPFPYDDPFS [GPX2_Y127_YF]	0.63
SQSPHYFRSGR [GPATCH8_Y1038]	0.383

test system: c-Abl (mouse); assay: as above

Sequence	phosphorylation enrichment
GLCSFYETSKM [MAGED2_Y449_R446C_YF]	0.82
DLFRLYVCVKE [ARID1B_Y1091]	0.875
FSSLGYPPPEG [ZSWIM4_Y87_YF]	0.593
WVYNHYRCIIW [BRCA2_Y2624_W2626C]	1.18
REQREYLDQLN [CCDC88B_Y1277]	2.21
MAALSYVSEIG [BPIFB2_Y36_K31M]	0.615
TRDVNYGWIIR [MT-CYB_Y75]	0.595
GFDHSYFFIAT [ESD_Y262_YF]	1.15
PQGVRYIYTID [DCX_Y103]	1.37
HSLRDYKEALM [ADA2_Y337_H335R]	0.751
GDFFRYLAEVA [YWHAG_Y133_YF]	0.78
IFRASYVPFAA [RBM47_Y541_G538R_YF]	0.527
ITRDIYETDFF [INSR_Y1185_M1180I_YF]	0.698
ITLPIYTKGSE [ANK2_Y1455_E1458G]	0.446
FLAVGYHKTHI [IDS_Y225_P228T]	0.638
RVVVPYEPPEV [TP53_Y220_S215R]	0.613
ARSMEYLAEQK [MST1R_Y1198]	0.655

Sequence	phosphorylation enrichment
RRFSSYSQMEN [PKP1_Y120]	0.808
EKKDIYKAGEQ [CFH_Y1008_V1007I]	0.5
DNACQYMLTDR [MYH7_Y164_Y162C]	0.766
SGGLDYGMVGG [TNRC6B_Y1382_M1380L]	0.523
LNYNEYFRDLN [HPRT1_Y198_D194N]	1.01
QRKRAYVEIEF [MAK16_Y282_YF]	0.631
KRLWDYGMSSS [F8_Y1728_E1723K]	0.536
VAFLFYKSIGP [ADGRL4_Y302_V300L_YF]	1.12
TQNGVYSAANY [DDX5_Y535]	1.04
FFLGAYDRFLP [SLC22A5_Y486_V481F_YF]	0.842
RLGNQHVNVMN [SLC3A1_Y461_Y461H]	0.947
INMKKYCKKDF [NTN1_Y490_YF]	0.734
MSRYIYSTDYY [NTRK1_Y676_D674Y]	0.879
KLPFLYDDPFS [GPX2_Y127_P126L_YF]	0.736
KLPFPYDDPFS [GPX2_Y127_YF]	1.16
SQSPHYFRSGR [GPATCH8_Y1038]	0.544
